Test results as given in patent publication US20190256597.

Test system: T1, cleavable peptide CP(AQ), Lys(AQ)SerGlyProLeuGlyValArgGlySerSerCys
T1 sequence: KSGPLGVRGSSC

Substance: purified, recombinant MMP2 (BioLegend, #554304)
- proteolytic cleavage followed by thin layer chromatography: after the incubation of CP(AQ) with MMP2, the compound was able to shift organic solution, with a transformed behavior from hydrophilic to hydrophobic
